Experimental findings from article PMC8684745 (Molecular Biology of the Cell, 2021) are described below.

The target of data set [1] is Drp1 (full-length human Drp1 isoform 3, Drp1 000) (human) (UniProt O00429). As to the kind of experiment: TIRF microscopy.
In data set [2] the target is Drp1/actin bundles (actin filaments prebundled by Cy5-Drp1) (human | rabbit) (UniProt O15027). As to the kind of experiment: TIRF microscopy.
Data set [3] deals with the molecule itself. Nature of the data set: AUC.

Sequence of Drp1/actin bundles (actin filaments prebundled by Cy5-Drp1) (human | rabbit) (O15027 whole entry): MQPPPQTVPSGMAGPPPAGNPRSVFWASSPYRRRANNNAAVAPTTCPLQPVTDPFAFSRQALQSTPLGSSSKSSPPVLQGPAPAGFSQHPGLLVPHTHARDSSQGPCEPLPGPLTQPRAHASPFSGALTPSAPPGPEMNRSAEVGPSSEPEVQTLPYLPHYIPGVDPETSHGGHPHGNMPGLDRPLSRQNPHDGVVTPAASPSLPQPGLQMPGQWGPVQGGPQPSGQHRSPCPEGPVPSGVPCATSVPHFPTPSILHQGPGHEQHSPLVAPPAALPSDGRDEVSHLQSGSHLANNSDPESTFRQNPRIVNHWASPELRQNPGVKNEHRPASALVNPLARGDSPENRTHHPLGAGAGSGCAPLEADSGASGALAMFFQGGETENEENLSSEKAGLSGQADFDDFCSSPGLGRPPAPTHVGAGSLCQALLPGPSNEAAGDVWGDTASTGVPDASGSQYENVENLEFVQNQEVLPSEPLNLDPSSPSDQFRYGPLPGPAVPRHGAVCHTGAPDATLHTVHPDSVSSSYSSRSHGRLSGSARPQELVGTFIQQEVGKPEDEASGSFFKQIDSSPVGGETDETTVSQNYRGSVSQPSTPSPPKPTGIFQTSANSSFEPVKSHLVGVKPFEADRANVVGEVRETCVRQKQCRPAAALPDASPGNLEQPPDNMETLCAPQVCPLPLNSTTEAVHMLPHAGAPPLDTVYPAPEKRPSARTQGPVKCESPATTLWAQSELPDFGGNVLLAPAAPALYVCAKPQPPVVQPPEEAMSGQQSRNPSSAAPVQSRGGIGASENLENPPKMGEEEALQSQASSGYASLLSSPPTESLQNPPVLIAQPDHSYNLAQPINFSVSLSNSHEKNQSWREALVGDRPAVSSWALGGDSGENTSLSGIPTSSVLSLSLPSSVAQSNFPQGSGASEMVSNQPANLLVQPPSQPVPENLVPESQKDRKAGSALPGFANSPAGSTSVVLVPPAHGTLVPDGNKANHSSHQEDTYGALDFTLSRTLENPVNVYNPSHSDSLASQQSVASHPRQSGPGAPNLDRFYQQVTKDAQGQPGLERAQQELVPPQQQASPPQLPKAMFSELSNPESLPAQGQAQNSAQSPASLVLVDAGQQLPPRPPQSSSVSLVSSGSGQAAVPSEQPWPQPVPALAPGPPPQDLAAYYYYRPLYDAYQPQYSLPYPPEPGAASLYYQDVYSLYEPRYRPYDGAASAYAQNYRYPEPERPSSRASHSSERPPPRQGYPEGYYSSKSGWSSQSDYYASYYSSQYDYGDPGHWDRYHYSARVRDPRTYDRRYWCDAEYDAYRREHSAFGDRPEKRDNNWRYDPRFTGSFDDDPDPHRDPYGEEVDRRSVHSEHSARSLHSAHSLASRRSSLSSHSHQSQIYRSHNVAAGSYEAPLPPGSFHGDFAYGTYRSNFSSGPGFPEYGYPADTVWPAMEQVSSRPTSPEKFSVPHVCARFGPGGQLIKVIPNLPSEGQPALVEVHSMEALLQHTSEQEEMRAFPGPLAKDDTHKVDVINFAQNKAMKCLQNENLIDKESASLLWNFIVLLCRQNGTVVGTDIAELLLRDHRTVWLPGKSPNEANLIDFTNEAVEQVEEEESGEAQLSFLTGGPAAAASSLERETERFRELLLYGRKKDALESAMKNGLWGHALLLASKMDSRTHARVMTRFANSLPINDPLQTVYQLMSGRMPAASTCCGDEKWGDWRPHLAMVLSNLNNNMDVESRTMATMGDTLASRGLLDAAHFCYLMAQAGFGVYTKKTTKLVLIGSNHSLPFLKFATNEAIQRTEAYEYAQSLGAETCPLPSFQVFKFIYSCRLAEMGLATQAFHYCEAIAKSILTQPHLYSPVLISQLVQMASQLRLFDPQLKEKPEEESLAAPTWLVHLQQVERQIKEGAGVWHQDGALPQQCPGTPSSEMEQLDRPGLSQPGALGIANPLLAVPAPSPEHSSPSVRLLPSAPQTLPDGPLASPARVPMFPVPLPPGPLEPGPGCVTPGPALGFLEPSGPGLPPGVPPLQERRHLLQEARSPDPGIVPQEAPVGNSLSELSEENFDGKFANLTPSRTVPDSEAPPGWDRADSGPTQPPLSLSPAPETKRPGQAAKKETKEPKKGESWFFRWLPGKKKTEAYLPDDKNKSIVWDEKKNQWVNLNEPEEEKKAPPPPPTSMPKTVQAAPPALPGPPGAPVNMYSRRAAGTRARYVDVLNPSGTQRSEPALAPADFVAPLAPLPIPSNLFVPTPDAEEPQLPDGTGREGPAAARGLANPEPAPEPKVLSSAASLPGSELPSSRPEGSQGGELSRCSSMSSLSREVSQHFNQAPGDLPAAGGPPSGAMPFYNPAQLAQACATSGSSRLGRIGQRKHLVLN

Molecule “Mff-L2P (Mff-∆TM with L179P and L186P) (from UniProt Q9GZY8-4 1-218) (domain or fragment)” displayed a fold less binding than Mff-∆TM in data set [1] of 5 fold. In turn, “Mff-∆TM (cytoplasmic region of human Mff isoform 4, C-terminally 6His-tagged) (from UniProt Q9GZY8-4 1-218) (domain or fragment)” yielded a percent of Mff-∆TM remaining after wash in data set [2] of 50%.

B1: GFP-CC (CC domain of human Mff isoform 4, amino acids 149–197, on the C-terminus of GFP) (domain or fragment)
chain: SGGGGISNIDTTIEGTSDDLTVVDAASLRRQIIKLNRRLQLLEEENKERAKREGGGS
In general, stoichiometry N refers to a count of units in the complex or per binding partner. As for B1, the “stoichiometry N” value in data set [3] came to 3.
